Test results reported in publication PMC4267659 (Nucleic Acids Research, 2014).

Legend:
Test in all cases: native gel or EMSA
[1] = target: T1, P. horikoshii aEF1α S423L mutant (Pyrococcus horikoshii, UniProt O59153 1-428, S423L)
T1 sequence: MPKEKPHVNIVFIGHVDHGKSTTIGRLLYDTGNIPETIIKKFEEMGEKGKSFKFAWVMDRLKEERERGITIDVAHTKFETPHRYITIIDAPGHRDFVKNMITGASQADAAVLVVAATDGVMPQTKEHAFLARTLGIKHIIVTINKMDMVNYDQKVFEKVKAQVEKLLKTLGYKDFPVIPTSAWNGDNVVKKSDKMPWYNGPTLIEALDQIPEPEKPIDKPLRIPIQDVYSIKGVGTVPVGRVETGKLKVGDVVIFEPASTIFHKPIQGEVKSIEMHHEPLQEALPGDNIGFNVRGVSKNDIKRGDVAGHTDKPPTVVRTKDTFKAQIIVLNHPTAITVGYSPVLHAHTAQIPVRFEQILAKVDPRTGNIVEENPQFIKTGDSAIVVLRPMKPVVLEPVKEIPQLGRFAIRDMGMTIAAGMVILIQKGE

[2] = target: T2, P. horikoshii aEF1α L359S mutant (Pyrococcus horikoshii, UniProt O59153 1-428, L359S)
T2 sequence: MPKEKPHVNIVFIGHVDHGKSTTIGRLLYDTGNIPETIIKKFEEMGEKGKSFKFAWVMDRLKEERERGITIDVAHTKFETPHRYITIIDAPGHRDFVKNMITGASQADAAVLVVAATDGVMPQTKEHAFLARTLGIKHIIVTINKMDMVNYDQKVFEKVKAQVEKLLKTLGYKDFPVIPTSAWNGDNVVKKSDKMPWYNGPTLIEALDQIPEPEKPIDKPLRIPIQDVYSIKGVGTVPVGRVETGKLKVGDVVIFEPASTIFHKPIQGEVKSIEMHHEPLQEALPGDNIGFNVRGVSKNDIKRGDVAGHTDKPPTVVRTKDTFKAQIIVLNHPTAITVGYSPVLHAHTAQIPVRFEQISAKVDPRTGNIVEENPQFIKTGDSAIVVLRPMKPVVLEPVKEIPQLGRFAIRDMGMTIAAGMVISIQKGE

[3] = target: T3, P. horikoshii aEF1α K125L mutant (Pyrococcus horikoshii, UniProt O59153 1-428, K125L)
T3 sequence: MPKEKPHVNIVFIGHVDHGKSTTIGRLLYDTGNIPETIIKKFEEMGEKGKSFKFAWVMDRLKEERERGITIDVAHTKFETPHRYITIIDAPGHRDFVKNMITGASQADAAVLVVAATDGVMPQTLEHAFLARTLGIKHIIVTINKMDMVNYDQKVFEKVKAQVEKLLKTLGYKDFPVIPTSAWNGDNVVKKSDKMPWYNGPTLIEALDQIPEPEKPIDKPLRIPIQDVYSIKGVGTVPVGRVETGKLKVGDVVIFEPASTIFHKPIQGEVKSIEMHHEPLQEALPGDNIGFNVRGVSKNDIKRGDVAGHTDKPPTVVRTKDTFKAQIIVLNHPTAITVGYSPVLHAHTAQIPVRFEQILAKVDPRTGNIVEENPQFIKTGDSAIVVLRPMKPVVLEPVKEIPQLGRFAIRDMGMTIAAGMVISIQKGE

[4] = target: T4, P. horikoshii aEF1α R132L mutant (Pyrococcus horikoshii, UniProt O59153 1-428, R132L)
T4 sequence: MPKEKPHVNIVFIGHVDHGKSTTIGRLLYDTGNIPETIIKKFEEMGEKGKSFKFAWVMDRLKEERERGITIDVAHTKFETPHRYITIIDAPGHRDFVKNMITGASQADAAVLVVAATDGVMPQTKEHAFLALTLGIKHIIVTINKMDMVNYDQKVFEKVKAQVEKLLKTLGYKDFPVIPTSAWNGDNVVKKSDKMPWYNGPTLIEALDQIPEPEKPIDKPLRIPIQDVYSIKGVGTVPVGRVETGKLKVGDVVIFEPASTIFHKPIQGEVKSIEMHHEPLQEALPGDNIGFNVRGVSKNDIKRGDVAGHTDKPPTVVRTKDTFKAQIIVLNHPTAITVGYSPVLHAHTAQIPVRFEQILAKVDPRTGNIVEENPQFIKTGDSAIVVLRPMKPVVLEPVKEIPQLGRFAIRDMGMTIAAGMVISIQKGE

[5] = target: T5, P. horikoshii aEF1α A360S mutant (Pyrococcus horikoshii, UniProt O59153 1-428, A360S)
T5 sequence: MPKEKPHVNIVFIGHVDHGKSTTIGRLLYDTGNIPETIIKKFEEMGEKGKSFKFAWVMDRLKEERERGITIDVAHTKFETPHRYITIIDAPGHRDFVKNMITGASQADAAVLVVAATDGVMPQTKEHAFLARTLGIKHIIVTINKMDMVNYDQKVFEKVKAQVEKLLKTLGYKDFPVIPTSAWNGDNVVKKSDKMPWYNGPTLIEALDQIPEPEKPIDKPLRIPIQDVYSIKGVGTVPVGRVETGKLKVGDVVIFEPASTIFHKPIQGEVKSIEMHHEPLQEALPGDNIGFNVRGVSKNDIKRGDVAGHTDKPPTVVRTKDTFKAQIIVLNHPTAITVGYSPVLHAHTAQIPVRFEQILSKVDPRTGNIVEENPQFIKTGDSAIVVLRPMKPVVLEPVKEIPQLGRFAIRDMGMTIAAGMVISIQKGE

[6] = target: T6, P. horikoshii aEF1α L166S mutant (Pyrococcus horikoshii, UniProt O59153 1-428, L166S)
T6 sequence: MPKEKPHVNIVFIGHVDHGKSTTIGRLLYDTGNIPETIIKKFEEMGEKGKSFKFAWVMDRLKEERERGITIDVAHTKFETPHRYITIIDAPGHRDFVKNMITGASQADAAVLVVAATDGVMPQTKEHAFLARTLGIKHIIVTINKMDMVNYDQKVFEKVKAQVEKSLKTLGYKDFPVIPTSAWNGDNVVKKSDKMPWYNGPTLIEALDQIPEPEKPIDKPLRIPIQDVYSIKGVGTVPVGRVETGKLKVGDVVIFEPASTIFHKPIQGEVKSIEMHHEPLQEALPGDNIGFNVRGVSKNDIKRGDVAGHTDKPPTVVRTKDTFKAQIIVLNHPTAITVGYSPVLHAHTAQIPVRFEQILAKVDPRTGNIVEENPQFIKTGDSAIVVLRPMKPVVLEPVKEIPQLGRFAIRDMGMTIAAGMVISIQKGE

[7] = target: T7, Pyrococcus horikoshii elongation factor aEF1α, wild type (Pyrococcus horikoshii, UniProt O59153 1-428)
T7 sequence: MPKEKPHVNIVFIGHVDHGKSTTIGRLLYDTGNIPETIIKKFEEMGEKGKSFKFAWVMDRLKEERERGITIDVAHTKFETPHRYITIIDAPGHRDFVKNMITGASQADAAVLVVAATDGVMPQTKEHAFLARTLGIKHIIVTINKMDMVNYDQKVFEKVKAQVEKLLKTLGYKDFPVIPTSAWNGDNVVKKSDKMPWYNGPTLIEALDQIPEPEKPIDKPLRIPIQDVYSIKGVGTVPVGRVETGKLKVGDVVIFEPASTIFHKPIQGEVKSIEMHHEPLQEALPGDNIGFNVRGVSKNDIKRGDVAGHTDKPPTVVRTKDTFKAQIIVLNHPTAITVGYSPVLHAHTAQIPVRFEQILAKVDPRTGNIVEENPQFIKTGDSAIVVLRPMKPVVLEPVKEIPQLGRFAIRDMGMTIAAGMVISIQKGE

Measured: binding result

B1: Pyrococcus horikoshii ribosomal stalk protein aP1, wild type (natural protein, UniProt O57705 1-108, looked up)
chain: MEYVYAALLLHSVGKEINEENLKAVLQAAGVEPEEARIKALVAALEGVNIDEVIEKAAMPVAVAAAPAAAPAEAGGEEKKEEEKKEEEEKEEEVSEEEALAGLSALFG
binds: [1] | [2] | [3] | [4] | [5] | [6]

B2: P. horikoshii aP1 L100S mutant (natural protein, Pyrococcus horikoshii, UniProt O57705 1-108, looked up)
chain: MEYVYAALLLHSVGKEINEENLKAVLQAAGVEPEEARIKALVAALEGVNIDEVIEKAAMPVAVAAAPAAAPAEAGGEEKKEEEKKEEEEKEEEVSEEEASAGLSALFG
binds: [7]
